# Laboratory results taken from the domain aggregation screens of Martell et al. (2025).
# Experiment: soluble fraction after stress (log2 fold change); higher = more stays soluble; pooled small domains, quantitative proteomics
# Conditions: stress: 50 degC
# Method in brief: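 After stress at 50°C, the amount of each protein still soluble was measured. This was done on pooled custom libraries of small protein domains, using high-throughput quantitative proteomics. The figure given is a base-two log fold change and stands for aggregation propensity, with higher values meaning more protein stays in solution.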
row,Sequence,soluble fraction (log2)
1,HMLQNLGFKPDLEIRHFPGIVLPDIHRSKKTISLLYTLLAGDIKKLPENEINYKDSKIISSYLWTLLRYH,0.0237
2,HMTDKLEEEAKKKAMEDALADEMNISKTIVHDGIRELARIGFLDVISRKGIYVADYTFTGNLETLLAVIRY,-0.926
3,HMLAERKERDKAELKELILDAAKKILLKNGQEGLSIRKIATTVEYSPATIYLYFKDKDEILHELMEMG,0.317
4,HMQNSPVFAASDIEDIRVGMTVEHQRFGQGRVMSIEGNGPNKKTTVLFEGIGEKQLLLQYAKLKIV,0.157
5,HMELDFLRLQIITGIHSGRLSNNEILMMYDTYSQKGGNSYVSRIVNDYVDENNIKEEGKRNARK,-0.346
6,HMKDSKSALQEYALERKMGLPVYEVVDRSGPDHAPQFVIAVSLGEWRLEAKGASKRQAEQQAASLMLEEI,-0.353
7,HMSQNVQDVFLNHVRKSKNPVTVFLVNGVKLQGIITWFDNFSVLLRREGHTQLVYKHAISTVMPSGPIQLF,0.0729
8,HMGGEIGSGKNGYVAFYKGKKVDVKADSMYGAQKTAAKYFNAKKEYDVNVVLAEVDGKQYVQS,0.343
9,HMSVDVGMQLRKLREERKISMRELARLSGLSANALSMIERGLTSPSVSTLNKLAGALEVPITAFFRI,-0.285
10,HMAVTGRVDLRIKPWGYVSVDGAAKVSSPPTMQLKLAPGRHEIEITNPAGAAVTKTVDVIAGKSVTVQHN,0.0967
11,HMTSMYYLNKAVKEGNAKAIRQLLSAGININVRKRETSTPLDFAIKYKQTEIADLLRKHGGKTAEELKAEE,-0.343
12,HMGDLAAAGNHTLEVMGFPQHPDESYRHFVGNGIPKLIERMLPAGHDKETEQKAYDIFMEYYSAHK,0.227
13,HMLNWINSDVLERFNSLTKEKQKAIVADTETRLNGLSQARFKVAKSSSNERLIAEFAIEINEAIMRAAAL,-1.49
14,HMTVMTGSQRRKKILELMRDAKEPLSGGALGKETGVSRHVVVQDIALLRTQGYPIVATARGYIINE,-0.212
15,HMPRNMTFAIRGEYITLDALLKAVGAADSGAQAKHRIAEGEVTVDGVVETRKTRKLRGGETVVVDDLAVVL,-0.272
16,HMPLTPATADAGRFVKQDRKYIRLLAKRYNFTHGDIKSEIDRVSAVLSSNGIDRVPLFLYKEYLEQYLAG,-1.85
17,HMEKIDEDIMDVLKKKAEVSGISLGVLKSIYEKAVKQYKLGHEIGQVKEQYAMQKVNTHLLENK,0.194
18,HMQRVSDKVAAQLRVLVQEQQLKPGDRLPAERALAVQLGVSRTALREAIAQLASQGLLTARVGGGTYVAEP,-0.307
19,HMELLEVSVIIREADSTGWSAARQGMEQAAADLGAELRFLTLSQSNSAEEQRSLLAREVEGGADAVVLV,-0.142
20,HMTNNFIVTWRNYNEEVLEIDVNVKKGSMPKYNGKTPEREGYQFVGWDPEITEVTKDITYVAQFM,-0.415
21,HMRQMIIIMQKQAAASSVAAVVEFIRSKGLREHISPGAERTIIGAVGDERVFLPQELESLPQVERAIRVL,-1.14
22,HMNVLLGISELSHATGVTPAQLRYWVSQGYIKNYGSNKKNKFSLETVFMVRSIKIFQNQGYTLSASAKRAA,0.0163
23,HMLSYNINEESKSSIMNVNVLKNNFASIDVEKLQNIIFTTFKKYNYYLNDFSSMNLLLHLLIIVDREL,0.337
24,HMDRTIGEIGLVTETIDSTLESGRVMVDGLSWKARTSDNTVLEAGTRVQVKEIHGVTLTVEKA,0.166
25,HMSLGTDVVPDFTGKGIKEAKTEFAAYSEGELYIIGEGEKVKEQFPLPGEKVNKNSDLILYV,0.101
26,HMRFSYLNIETRKDISSLINKSEITHSSYNNNEYLYKIKSKKTDDFKDLISLIDEKDLISYSIDS,-0.838

row,Sequence,soluble fraction (log2)
1,HMTQSPLHWSHRPIDLSELLTYLDRDGAFVYASGHKAPFTEVVRGFEHLLNIRLGDPRDVKRSVLQR,-0.369
2,HMSNTIFGINGPVVTVASKDFSMQEMVYVGNERLVGEVISIDDDLTTIQVYEVTTGLKPGEPVVGTGSAM,-0.531
3,HMGRKRLADYGLNDTEQKIVRKIADGLSNREIAQALYLSEGTVKNYITDILGKLELRDRTQIAIFYLREIG,-0.0293
4,HMHITSFTIKQADQIVGTTPVREQAVGAAKARAQQTGTPVSVIAYLDTGEEREVIIHPDGTN,0.324
5,HMSAERFDFRIGPELAGKRFDQALAEALPQFSRSRLSTWIKDGRATLNGATMRPKDSVHAGDTVVVNAE,0.126
6,HMSSADIPFSRFIDDVEAQRVEKVTIDGVNVTGRYRSDGAAFKTIIPSQYDGLVPILRQNKVDITVKDA,0.123
7,HMSIVVPDLRGKTLEEARAILKEADLDFEINDSTFSKTARPGTIRDVVPSPGSRVKAGRILFISINGF,-0.519
8,HMNNKSDLLFNHLRQRIATMENGTIFPSVRQLMTEYNVSQSTVSTAIRSLKELGLLEALSRQGMVVRKE,-0.476
9,HMNEVIIKNWSNAVGRNIKIKTKRGRPIFGRLLAINDQQLTIASKYMRGNATITVAREDVVSMSVS,-0.516
10,HMSYLELENLAEDIKATYDNLSTDLREVFRLSDIEGLSYEEISNKMNIPIGTVRSRLHRARETLLRIFNN,-0.933
11,HMGNEEEEAIREAEEAIERVLEYGEPQELNPQNGFIRRLQHQLAEKSHLSSESVGVEPYRRVRISK,0.185
12,HMSSAMDMISRDVRNADSISISTTTYSKKIDLYNFDRNGDIEELHSYSAKNDLGILYNDEPI,-0.276
13,HMNKADFLRKLDRELSVLDQEERKEILSFYEERFYTGTNYENKTELDIINELENPEIIAKNVLEEYGV,-0.154
14,HMQVTDADFDQIRLAVLSQLKQNSLTVAELLKIIPFKEQKVMPVIRFLIDNRVLEHGTDMKLTVGNSVK,0.0195
15,HMKGAADPAIKQKVLDYLDTVEKAKSKEIAKAISEEKSAVDLAVKELAFEDKVEYLYITTTFVALKGKVA,-0.168
16,HMIQNEITLMLQVNGKLRGQIQVPSDASKEQIEQLAKDSEAAQKALAGASPKKIIVVPGRLVNIV,-0.092
17,HMGRSYTIKSGDTLWAIATRYYGNGAQYSKIYNANKGTIESVAKSRGFRSSQNGHWIFPGTSITI,-0.207
18,HMVDSVIGSVGRVTVDIDNVEALGQVKLGGMEWSARSTSGDPIPAGTEVRVDRVEGVKVFVTPV,-0.00113
19,HMETTMVEIKAEFTIRNRLDIPAMMEKAGYKDRGEFLSVLEKITGNYNWDRDVKKGDTFMVPSKLA,-0.777
20,HMAFYQDIAVDLRKQIIDGVYPKNSRLPNQAELAKLYTTSRVTIQKALKILQIEGLIEGRQGSGSYVKGP,-1.42
21,HMNDYNLTDREKEVLTFLFQGLEYKEIGMKMSVSPNTIRNHISNIYKKLHVTSKTQAIRVFLNN,-2.21
22,HMAIEGIFEKYQRRSDQLIPILQDVQKEFGYIAPESVRHISRYLRISENQIFGVSSFYAQFRFT,-0.292
23,HMDSVTMYATTGVNVRSGPSTSYSIVGGLDRGDKVTRIGTSGNWTKVVWGNGSAYVFSKYLQTGY,-1.81
24,HMFRDFSETLLRKLQAAGGFLPFTDKTDAEAIAEHFQVSKKTFKRAVGTLYKQRRILIDDEGITLIG,-0.148
25,HMGLQEADKQDRIARMKELISFLNEAAKAYYQEGREIVSNLEYDKAYDALLSLEKESGVVLSGSPSQNVG,0.147
26,HMDRKARRKYIEQVVNDRKIETQEELLKLLTEAGFETTQATISRDIHALNIVKANDGDGHTHYVQLH,0.144

row,Sequence,soluble fraction (log2)
1,HMSGAWEVGLLRQFTDWMGTQYNAYAGRNFDAITVAQVAEKNPELLTPFVESFFKERVEPALAAG,-0.849
2,HMSILSRREHEIMQWVKGGKTNIEIAQILGISARTVRNHLQNVFRKLDVINRAQAVFEVERRR,-2.15
3,HMGEPVEIEEPITVRSLSEALGLKSSAIISHLMRQGVFATINQNLDKETAELIAAEYGIELRIK,0.00995
4,HMEQGDTQQEIREKILNLLADGERHMITELKNIRTDQPIDDDKIVGKTLKTLLDEEEVYMDGSYIQLNG,0.259
5,HMEINKLIELIGGYKALSEVLNVSKSAISNYKKRGSLPSYAIPIIVKELKSKGISIDLSEFT,-0.66
6,HMEHNDPEVERTMFQGLEALKLQLFEKAFGHFSLLIKLAPDYAEAWNKRATVLYLMGRFKESESDVMRTLE,0.0585
7,HMGMSENIDKVAGGIPYKVEGNKAIINEPLDDATKERLMGKAKEHGYHAAPNQAGGITITLK,0.134
8,HMNELGSLIKRKREELGLSQEELARILGYKHKSSINKIELGLADVPRTKVPAFAKALGMTPVEFS,0.0771
9,HMDRAIAAHLEARVRDALKQLSPEQTRVIELFFFDNKTHAEIENDLKIPLGTVKSRLRLALNKLRASL,-1.96
10,HMYRYTTFKVKEADTLLPFIQKSLNGISHNRAKAILTGGGVLVDKKITRAYDFALRPGMTVEISKSKP,-0.103
11,HMEDIEEVIVEIDTVLRTHFDRGRTEVLFAEIETAGGRPFMTYLALLFMAHRGSVRLQQDDLFGDLWVKDP,-0.0374
12,HMTGPSYTTRRVEAAETMMEFLRTFPQAAPFIGDLYVKAQDWPLGEEIGDRLKKMLPPQLQE,-0.519
13,HMDLRYKVQYNFIDQGMMTKDELLKFSLNQDDVSKIAVFDNDSKQWKEIYAITEISEKLGIS,-0.0611
14,HMTGEERRMNTADLYRRRGMELFKRKIYVDAIDSLKVSLEYEDNATTRYYLDLATKRYQDLKIS,-1.12
15,HMSQAVEISSVKTQIDGKSYYLHTIKQGQTLYGISKAYGVSVEELTTVNPETSKGLKVGQIIKVPDTKT,0.0299
16,HMTNSTGWSKSGGTQVTIREGETIYNLSRRYGVPAKSIMEANGIADATAVRAGQRISIPTYSY,0.0505
17,HMIDSEEVMETIQDLGYSPVFDVKEKFYKIKEEQIGKITLEVHIILRYGMVDLVWIVRENGELLLG,0.138
18,HMPTYEEAKTYLKAAFEHIVAAGRDVGELVEFAFAKSGDAVAPYLRRFLSDVHEGRITIQGLTESAKLAV,0.206
19,HMAESLHVTAAALFEGRAMLGIDGSRRLLRVGETSPEGVKLVSATAREAVIEIDGRRQTLAPGRDT,0.0658
20,HMPSREDFAYDSIKEAILSGELLPNQKISLSDLANKLGISIIPVNSAVGRLVAEGLVRQDPHHSPYVV,0.345
21,HMKNYYSILGVTPDSSEAEIKSAYRRLARKFHPDVNPDGASRFKDISEAYETLSDAKKRFQYDTINGF,0.107
22,HMEAADAGTLAQRAAQYFNEKNYAAALDALERRAAMAPETTELRMMRGWSLLHLNRKDEARNAFATLG,-0.0562
23,HMNTDEYEQKRGEILDAAQRLIYTKGYERMSIQDILDELKISKGAFYHYFDSKQSLLEALTARMMTE,-0.101
24,HMASELQQVQALLESQRYNEALILIETTIGKGASESTELLFARADVFASSGRHDEAEQAYREL,-0.0838
